Where a chain is given by its changes, count along the chain named.
B1: P001009: phage display anti-CD200R1 clone; VH SEQ ID NO: 79, VL SEQ ID NO: 94 (antibody, V domains shown)
VH: EVQLLESGGGLVQPGGSLRLSCAASGFTFSSYDMSWVRQAPGKGLEWVSWISHGGGSIYYADSVKGRFTISRDNSKNTLYLQMNSLRAEDTAVYYCARDAPAYSAPLFDYWGQGTLVTVSS
VL: QSVLTQPPSASGTPGQRVTISCSGSSSNIGNNAVNWYQQLPGTAPKLLIYYDSNRPSGVPDRFSGSKSGTSASLAISGLRSEDEADYYCAAWDDSLSGYVFGGGTKLTVL
B2: P001009v1: P001009 variant, LC S52 and LC S94 substituted with K and R; VH SEQ ID NO: 79 (antibody, V domains shown)
VH: B1 VH
VL: B1 VL with S53K, S95R

How the values were obtained:
mouse CD200R1 protein = molecular target: T1, mouse CD200R1 protein (Mus musculus, UniProt Q9ES57); test: ELISA binding to mouse CD200R1; conditions: concentrations up to 300 nM
T1 construct: purchased R&D systems 2554-CD
T1 sequence (Q9ES57 26-326): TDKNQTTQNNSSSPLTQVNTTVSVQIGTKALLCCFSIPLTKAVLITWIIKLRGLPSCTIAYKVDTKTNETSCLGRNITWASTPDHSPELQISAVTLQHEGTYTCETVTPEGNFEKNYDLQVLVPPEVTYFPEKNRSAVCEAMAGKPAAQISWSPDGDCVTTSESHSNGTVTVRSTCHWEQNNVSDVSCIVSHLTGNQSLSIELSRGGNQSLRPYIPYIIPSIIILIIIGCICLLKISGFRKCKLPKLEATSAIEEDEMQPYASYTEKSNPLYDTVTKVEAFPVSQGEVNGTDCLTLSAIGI
Experimental: 96-well plates were coated with human CD200R1 (R&D systems, 3414-CD) and mouse CD200R1 protein (R&D systems, 2554-CD) at a concentration of 2 μg/mL at 4° C. for 16 hours and then were blocked with 3% skim milk. The result was treated with the antibodies at concentrations of 300 nM, 60 nM, 12 nM, 2.4 nM, 0.48 nM, 0.096 nM, and 0.0192 nM, and reacted at room temperature for 2 hours.
The result was washed with PBST and distilled water, the samples were bound with a goat-derived HRP-conjugated anti-human antibody (Invitrogen, 31482, Goat anti-Human IgG F(ab′)2 Secondary Antibody, HRP) for 1 hour at room temperature, and then washed again with PBST and distilled water. Color was developed with a TMB substrate solution (Thermo Scientific, 34029, 1-Step™ TMB-ELISA Ultra Substrate Solution). The color reaction was stopped with stop solution (Invitrogen, SS04, ELISA Stop Solution). The absorbance was measured at an optical density of 450 nm.

[1] = molecular target: T2, CD200R1 on U937-CD200R overexpressing cells (Homo sapiens, UniProt Q8TD46); test: Cell binding assay (flow cytometry), U937-CD200R1 cells; type: cell-based; conditions: serial dilution from 100 nM
T2 construct: host or cells: U937 (CRL-1593.2)
T2 sequence (Q8TD46 25-348): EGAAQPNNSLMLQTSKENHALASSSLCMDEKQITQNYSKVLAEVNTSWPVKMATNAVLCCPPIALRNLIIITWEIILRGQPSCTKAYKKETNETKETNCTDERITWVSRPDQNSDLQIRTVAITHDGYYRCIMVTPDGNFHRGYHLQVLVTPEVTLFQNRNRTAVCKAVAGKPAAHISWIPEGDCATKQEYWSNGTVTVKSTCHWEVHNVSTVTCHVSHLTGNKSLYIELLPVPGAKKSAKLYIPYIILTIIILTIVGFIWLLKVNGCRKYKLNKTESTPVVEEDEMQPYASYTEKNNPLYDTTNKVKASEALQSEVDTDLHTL
Experimental: Binding ability was determined in HH, an endogenous T cell line with high CD200R1 expression, and two additional overexpressing cell lines: U937-CD200R overexpressing cells, generated by intranuclear injection of human CD200R1 CDNA into the monocytic cell line U937 (CRL-1593.2) (Source: UMC Utrecht, the Netherlands) and Jurkat-CD200R overexpressing cells, were also cells engineered using a similar method.
All cell lines were maintained in RPMI 1640 medium supplemented with 10% heat-inactivated FBS and 1% penicillin/streptomycin (P/S) and cell binding was determined in the same manner as in Example 12. Two additional wells were treated with 10 μl of mouse IgG1K (BD, #555751) and 5 μl of commercial CD200R1 antibody (Biolegend, #329308) to determine CD200R1 expression on the cell line surface for cell quality control.
Specific binding ability was determined using P001009 WT and antibody-optimized mutants, P001009v1, P001009v2, P001009v3, and P001009v4. The antibodies were serially diluted 10-fold from a maximum concentration of 100 nM to 10 nM, 1 nM, […], and were added to the pre-seeded cells. […] Using GraphPad Prism software, the EC50 was determined using a nonlinear graph model of log (agonist) vs. response-variable slope, as shown in Table 32.

[2] = test system: Th1/Th2 cytokines in nasal polyp patient specimens; test: Ex vivo cytokine inhibition in nasal polyp patient specimens (CBA); type: cell-based, human; conditions: antibody drugs 100 nM; three DUPIXENT-resistant samples of 10; Th2 cytokines IL-5, IL-4
Experimental: The specimens were finely chopped and minced, and then additionally processed twice using the m_lung_02 protocol on a gentleMACS (Miltenyi Biotec) to obtain tissue fragments. After centrifugation at 1500 rpm for 3 minutes to ensure that all tissues formed a pellet, RPMI media+10% FBS was aliquoted in the pellet at a 1:3 ratio. The pellet was thoroughly mixed with the medium and dispensed into a 96-well u-bottom plate, 100 μl per well, in triplicate for each drug. To establish the screening assay, results were obtained first using dexamethasone (a steroid-based positive control drug), followed by treatment with the anti-CD200R1 antibody (P001009v1) and other drugs used for the corresponding disease. All antibody-based drugs were treated at 100 nM, while steroid drugs such as dexamethasone were treated at 20 μM.
After drug treatment, the cells were incubated at 37° C. for 1 hour. To increase overall cytokine levels, 4 μl of a 10-fold diluted cell stimulation cocktail 500× (Invitrogen #00-4970-03) was added on each well and mixed. After reaction for 24 hours at 37° C., the supernatant was collected by centrifugation. Using the human Th1/Th2 cytokine cytometric bead array (CBA) kit (BD, #550749), cytokine levels in the supernatant were measured and the degree of drug responsiveness of each sample was determined.

Molecule | binding ability to mouse CD200R1 (mouse CD200R1 protein) | binding ability to U937-CD200R1 [1] | cytokine suppression in nasal polyp patient samples [2]
B1 | very weak | – | –
B2 | – | exhibited binding ability | superior cytokine suppression
